Test results reported in publication PMC3022805 (Journal of Biomedical Science, 2011).
Residue numbers refer to the chain shown, from its start. Values joined by “and” are separate entries in the source; they are usually repeats but may differ in a detail not shown here. Equal values may be shown once.

B1: apoE3-(72-166) (domain or fragment, human, UniProt P02649 90-184, looked up)
chain: KAYKSELEEQLTPVAEETRARLSKELQAAQARLGADMEDVCGRLVQYRGEVQAMLGQSTEELRVRLASHLRKLRKRLLRDADDLQKRLAVYQAGA
notes: 12 kDa; numbers count on: the mature protein of 299 amino acids; source: E. coli, purified
B2: apoE2-(72-166) (domain or fragment, human, UniProt P02649 90-184, looked up)
chain: B1 chain with R87C
notes: 12 kDa; numbers count on: the mature protein of 299 amino acids; cDNA amplified with the printed primers and ligated NdeI-XhoI into pET-29a(+); source: E. coli, purified
B3: apoE4-(72-166) (domain or fragment, human, UniProt P02649 90-184, looked up)
chain: B1 chain with C41R
notes: as for B1

Assays:
[1] = target: the molecule itself; assay: AUC; sedimentation velocity and sedimentation equilibrium fitted together to a global discrete species model (SEDPHAT); PBS pH 7.3 with 50 mM DHPC (micelles), 20°C
[2] = target: the molecule itself; assay: AUC; sedimentation velocity and sedimentation equilibrium fitted together to a global discrete species model (SEDPHAT); PBS pH 7.3 with 5 mM DHPC (submicellar), 20°C
[3] = target: the molecule itself; assay: AUC; sedimentation velocity (42,000 rpm, 0.5 mg/ml) and sedimentation equilibrium (10,000, 15,000, 20,000 rpm, 18 h each) fitted together to a global discrete species model (SEDPHAT); PBS pH 7.3, 20°C, no DHPC

| Protein | stoichiometry N [1] | stoichiometry N [2] | stoichiometry N [3] |
| --- | --- | --- | --- |
| B1 | 2 | 4 | 6 |
| B2 | 4 | – | 2 and 6 |
| B3 | 2 | – | 4 |
